± gives the uncertainty stated by the source.
B1: Homeobox protein cut-like 1, residues 548 to 629; numbered along this chain, P39880 (parent)
chain: GEEMDTAEIARQVKEQLIKHNIGQRIFGHYVLGLSQGSVSEILARPKPWNKLTVRGKEPFHKMKQFLSDEQNILALRSIQGR

Variants of: B1
Assay: abundance fitness (aPCA) (normalised: wild type 0, dead -1); higher = more abundant; growth selection in yeast, the domain comes from the species named
Details: Homo sapiens

Abundance fitness, by site and new letter:
S40: P -0.258 ± 0.048 | A 0.057 ± 0.026 | L -0.101 ± 0.031 | H 0.123 ± 0.052 | M -0.051 ± 0.038 | N -0.018 ± 0.052 | G -0.06 ± 0.021 | F -0.162 ± 0.082 | K 0.032 ± 0.036 | Q 0.017 ± 0.038 | C -0.063 ± 0.041 | T 0.055 ± 0.036 | I -0.117 ± 0.081 | W -0.131 ± 0.031 | D 0.078 ± 0.039 | E 0.13 ± 0.028 | Y -0.102 ± 0.058
E41: V -0.433 ± 0.034 | C -0.219 ± 0.045 | G -0.293 ± 0.025 | Y -0.412 ± 0.083 | N -0.206 ± 0.059 | H -0.353 ± 0.1 | M -0.377 ± 0.048 | T -0.243 ± 0.039 | F -0.758 ± 0.14 | K -0.727 ± 0.074 | D -0.061 ± 0.047 | A -0.13 ± 0.029 | L -0.345 ± 0.037 | I -0.477 ± 0.1 | W -0.522 ± 0.041 | R -0.851 ± 0.047 | Q -0.204 ± 0.04 | S -0.265 ± 0.034
L32: V -0.41 ± 0.033 | Q -0.791 ± 0.063 | N -0.768 ± 0.12 | H -0.723 ± 0.12 | Y -1.01 ± 0.21 | K -0.986 ± 0.091 | A -0.732 ± 0.044 | S -0.793 ± 0.054 | G -0.839 ± 0.042 | C -0.281 ± 0.056 | D -0.773 ± 0.083 | F -0.988 ± 0.24 | E -0.792 ± 0.05 | R -0.943 ± 0.043 | P -0.894 ± 0.084 | I -0.562 ± 0.088 | T -0.741 ± 0.057 | M -0.317 ± 0.046
I42: V -0.104 ± 0.028 | K -0.747 ± 0.073 | T -0.375 ± 0.05 | P -0.819 ± 0.11 | D -0.723 ± 0.082 | Y -0.351 ± 0.085 | W -0.513 ± 0.038 | Q -0.564 ± 0.06 | L -0.013 ± 0.031 | N -0.633 ± 0.12 | A -0.36 ± 0.034 | E -0.707 ± 0.046 | F -0.242 ± 0.086 | C -0.253 ± 0.049 | M 0.004 ± 0.038 | R -1 ± 0.053
A44: C -0.134 ± 0.047 | T 0.057 ± 0.035 | G -0.038 ± 0.024 | V -0.137 ± 0.029 | P -0.709 ± 0.06 | Y -0.099 ± 0.056 | E 0.08 ± 0.03 | K -0.094 ± 0.04 | F -0.082 ± 0.052 | N 0.073 ± 0.073 | M 0.047 ± 0.037 | S 0.034 ± 0.032 | R -0.106 ± 0.026 | D 0.056 ± 0.041 | L -0.027 ± 0.031 | Q 0.053 ± 0.038 | I -0.159 ± 0.055 | W -0.176 ± 0.032
G33: N -0.106 ± 0.068 | R -0.351 ± 0.026 | S -0.297 ± 0.035 | E -0.312 ± 0.033 | F -0.883 ± 0.28 | P -0.882 ± 0.086 | Q -0.221 ± 0.037 | K -0.217 ± 0.039 | D -0.268 ± 0.049 | W -0.969 ± 0.069 | C -0.4 ± 0.056 | I -1.15 ± 0.26 | H -0.111 ± 0.059 | L -0.822 ± 0.055 | T -0.798 ± 0.071 | V -0.895 ± 0.054 | Y -1.16 ± 0.35 | A -0.341 ± 0.032
Q36: M -0.104 ± 0.036 | D 0.056 ± 0.045 | A 0.021 ± 0.026 | E 0.055 ± 0.029 | K 0.025 ± 0.037 | V -0.025 ± 0.027 | H -0.017 ± 0.069 | Y -0.045 ± 0.068 | R -0.049 ± 0.025 | W -0.039 ± 0.031 | I -0.059 ± 0.053 | L 0.008 ± 0.032 | T -0.034 ± 0.033 | N -0.048 ± 0.057 | C -0.157 ± 0.047 | P 0.071 ± 0.035
L43: E -0.89 ± 0.062 | A -0.772 ± 0.043 | T -0.922 ± 0.1 | C -0.843 ± 0.1 | G -0.929 ± 0.043 | N -1 ± 0.16 | D -0.68 ± 0.1 | H -1.04 ± 0.19 | M -0.235 ± 0.038 | R -1 ± 0.048 | W -0.743 ± 0.057 | V -0.769 ± 0.043 | Q -0.807 ± 0.069 | Y -0.699 ± 0.13 | K -1.03 ± 0.078 | I -0.534 ± 0.1 | P -0.926 ± 0.073 | F -0.146 ± 0.07 | S -0.865 ± 0.065
L34: D -0.274 ± 0.056 | C -0.047 ± 0.055 | P -0.519 ± 0.059 | Y -0.26 ± 0.063 | F -0.167 ± 0.068 | K -0.346 ± 0.04 | W -0.264 ± 0.032 | I -0.052 ± 0.062 | Q -0.173 ± 0.039 | S -0.349 ± 0.04 | N -0.362 ± 0.079 | R -0.393 ± 0.027 | A -0.228 ± 0.033 | T -0.213 ± 0.038 | V -0.151 ± 0.028 | G -0.461 ± 0.029 | M 0.09 ± 0.039
R45: M -0.049 ± 0.042 | Q -0.021 ± 0.035 | D -0.033 ± 0.047 | P -0.797 ± 0.086 | F 0.008 ± 0.05 | G -0.296 ± 0.026 | Y -0.085 ± 0.056 | W -0.201 ± 0.034 | S 0.041 ± 0.033 | K -0.006 ± 0.039

From the Human Domainome abundance scans (Beltran et al. 2025)
